The text below walks through data of patent US20220098591, “STEM-LOOP COMPOSITIONS AND METHODS FOR INHIBITING VASCULAR ENDOTHELIAL GROWTN FACTOR” (DRIVE THERAPEUTICS LLC, published 2022).

B1: Aptamer 137 (ssRNA)
RNA: AGGCCGAACCGCGCGGAGGGGUUUCAUUAUCCCGUUUUUCGGCUU
modifications: all G 2'-F; A,C,U 2'-OMe; Sp3 joins the two parts; 5' C6NH2; 3' idT
B2: Aptamer 139 (ssRNA)
RNA: AGGCCGUACCGCGCGGAGGGGUUUCAUUAUCCCGUUUUACGGCUU
modifications: all G 2'-F; A,C,U 2'-OMe; Sp3 joins the two parts; 5' C6NH2; 3' idT
B3: Aptamer 138 (ssRNA)
RNA: AGGCCGAUCCGCGCGGAGGGGUUUCAUUAUCCCGUUUAUCGGCUU
modifications: all G 2'-F; A,C,U 2'-OMe; Sp3 joins the two parts; 5' C6NH2; 3' idT
B4: Aptamer 187 (ssRNA)
RNA: AGGCCGACCCGCGCGGAGGGGUUUCAUUACCCCGUUUGUCGGCUU
modifications: all G 2'-F; A,C,U 2'-OMe; Sp3 joins the two parts; 5' C6NH2; 3' idT
B5: Aptamer 234 (ssRNA)
RNA: CGACCCGCGCGGAGGGGUUUCAUUAUCCCGUUUGUCG
modifications: G 2'-F except 2'-OMe-G as X in CXAC-Sp3-CCGCGCGGAGGGXUUUCAUUAUCCCGUUUXUCX; A,C,U 2'-OMe; Sp3 joins the two parts; 5' C6NH2; 3' idT
B6: Aptamer 129 (ssRNA)
RNA: AGGCCGCCUCCGCGCGGAGGUCUUUCAUUAGACCGUUUGGCGGCUU
modifications: all G 2'-F; A,C,U 2'-OMe; 5' C6NH2; 3' idT
B7: Aptamer 122 (ssRNA)
RNA: AGGCCGCAUCCGCGCGGAGGGGUUUCAUUAUCCCGUUUUGCGGCUU
modifications: all G 2'-F; A,C,U 2'-OMe; 5' C6NH2; 3' idT
B8: Aptamer 127 (ssRNA)
RNA: AGGCCGCCUCCGCGCGGAGGGCUUUCAUUAGCCCGUUUGGCGGCUU
modifications: all G 2'-F; A,C,U 2'-OMe; 5' C6NH2; 3' idT
B9: Aptamer 112 (ssRNA)
RNA: AGGCCGCCUCCGCGCGGAAGGGUUUCAUUAUCCUGUUUGGCGGCUU
modifications: all G 2'-F; A,C,U 2'-OMe; 5' C6NH2; 3' idT
B10: Aptamer 125 (ssRNA)
RNA: AGGCCGACUCCGCGCGGAGGGGUUUCAUUAUCCCGUUUGUCGGCUU
modifications: all G 2'-F; A,C,U 2'-OMe; 5' C6NH2; 3' idT
B11: Aptamer 164 (ssRNA)
RNA: AGGCCGCCUCCGCGCGGAGGGGUUUCAUUAUCCCUUUUGGCGGCUU
modifications: all G 2'-F; A,C,U 2'-OMe; 5' C6NH2; 3' idT
B12: Aptamer 132 (ssRNA)
RNA: AGGCCGCCUCCGCGCGGAGGCGUUUCAUUACGCCGUUUGGCGGCUU
modifications: all G 2'-F; A,C,U 2'-OMe; 5' C6NH2; 3' idT
B13: Aptamer 156 (ssRNA)
RNA: AGGCCGCCUCCGCCCGGAGGGGUUUCAUUAUCCCGUUUGGCGGCUU
modifications: all G 2'-F; A,C,U 2'-OMe; 5' C6NH2; 3' idT
B14: Aptamer 161 (ssRNA)
RNA: AGGCCGCCUCCGCGCGGCGGGGUUUCAUUAUCCCGUUUGGCGGCUU
modifications: all G 2'-F; A,C,U 2'-OMe; 5' C6NH2; 3' idT
B15: Aptamer 126 (ssRNA)
RNA: AGGCCGUCUCCGCGCGGAGGGGUUUCAUUAUCCCGUUUGACGGCUU
modifications: all G 2'-F; A,C,U 2'-OMe; 5' C6NH2; 3' idT
B16: Aptamer 158 (ssRNA)
RNA: AGGCCGCCUCCGCGAGGAGGGGUUUCAUUAUCCCGUUUGGCGGCUU
modifications: all G 2'-F; A,C,U 2'-OMe; 5' C6NH2; 3' idT
B17: Aptamer 163 (ssRNA)
RNA: AGGCCGCCUCCGCGCGGAGGGGUUUCAUUAUCCCCUUUGGCGGCUU
modifications: all G 2'-F; A,C,U 2'-OMe; 5' C6NH2; 3' idT
B18: Aptamer 155 (ssRNA)
RNA: AGGCCGCCUCCGCACGGAGGGGUUUCAUUAUCCCGUUUGGCGGCUU
modifications: all G 2'-F; A,C,U 2'-OMe; 5' C6NH2; 3' idT
B19: Aptamer 178 (ssRNA)
RNA: AGGCCGCCUCAGCGCUGAGGGGUUUCAUUAUCCCGUUUGGCGGCUU
modifications: all G 2'-F; A,C,U 2'-OMe; 5' C6NH2; 3' idT
B20: Aptamer 130 (ssRNA)
RNA: AGGCCGCCUCCGCGCGGAGGUGUUUCAUUACACCGUUUGGCGGCUU
modifications: all G 2'-F; A,C,U 2'-OMe; 5' C6NH2; 3' idT
B21: Aptamer 157 (ssRNA)
RNA: AGGCCGCCUCCGCUCGGAGGGGUUUCAUUAUCCCGUUUGGCGGCUU
modifications: all G 2'-F; A,C,U 2'-OMe; 5' C6NH2; 3' idT
B22: Aptamer 117 (ssRNA)
RNA: AGGCCGCCUCCGCGCGGAGCGGUUUCAUUAUCGCGUUUGGCGGCUU
modifications: all G 2'-F; A,C,U 2'-OMe; 5' C6NH2; 3' idT
B23: Aptamer 160 (ssRNA)
RNA: AGGCCGCCUCCGCGUGGAGGGGUUUCAUUAUCCCGUUUGGCGGCUU
modifications: all G 2'-F; A,C,U 2'-OMe; 5' C6NH2; 3' idT
B24: Aptamer 148 (ssRNA)
RNA: AGGCCGCCGCCGCGCGGAGGGGUUUCAUUAUCCCGUUUGGCGGCUU
modifications: all G 2'-F; A,C,U 2'-OMe; 5' C6NH2; 3' idT
B25: Aptamer 113 (ssRNA)
RNA: AGGCCGCCUCCGCGCGGAUGGGUUUCAUUAUCCAGUUUGGCGGCUU
modifications: all G 2'-F; A,C,U 2'-OMe; 5' C6NH2; 3' idT
B26: Aptamer 131 (ssRNA)
RNA: AGGCCGCCUCCGCGCGGAGGAGUUUCAUUACUCCGUUUGGCGGCUU
modifications: all G 2'-F; A,C,U 2'-OMe; 5' C6NH2; 3' idT
B27: Aptamer 159 (ssRNA)
RNA: AGGCCGCCUCCGCGGGGAGGGGUUUCAUUAUCCCGUUUGGCGGCUU
modifications: all G 2'-F; A,C,U 2'-OMe; 5' C6NH2; 3' idT
B28: Aptamer 114 (ssRNA)
RNA: AGGCCGCCUCCGCGCGGACGGGUUUCAUUAUCCGGUUUGGCGGCUU
modifications: all G 2'-F; A,C,U 2'-OMe; 5' C6NH2; 3' idT
B29: Aptamer 149 (ssRNA)
RNA: AGGCCGCCUCCACGCGGAGGGGUUUCAUUAUCCCGUUUGGCGGCUU
modifications: all G 2'-F; A,C,U 2'-OMe; 5' C6NH2; 3' idT
B30: Aptamer 116 (ssRNA)
RNA: AGGCCGCCUCCGCGCGGAGUGGUUUCAUUAUCACGUUUGGCGGCUU
modifications: all G 2'-F; A,C,U 2'-OMe; 5' C6NH2; 3' idT
B31: Aptamer 166 (ssRNA)
RNA: AGGCCGCCUCCGCGCGGAGGGGUUUCAUUAUCCCGCUUGGCGGCUU
modifications: all G 2'-F; A,C,U 2'-OMe; 5' C6NH2; 3' idT
B32: Aptamer 146 (ssRNA)
RNA: AGGCCGCCACCGCGCGGAGGGGUUUCAUUAUCCCGUUUGGCGGCUU
modifications: all G 2'-F; A,C,U 2'-OMe; 5' C6NH2; 3' idT
B33: Aptamer 162 (ssRNA)
RNA: AGGCCGCCUCCGCGCGGAGGGGUUUCAUUAUCCCAUUUGGCGGCUU
modifications: all G 2'-F; A,C,U 2'-OMe; 5' C6NH2; 3' idT
B34: Aptamer 150 (ssRNA)
RNA: AGGCCGCCUCCCCGCGGAGGGGUUUCAUUAUCCCGUUUGGCGGCUU
modifications: all G 2'-F; A,C,U 2'-OMe; 5' C6NH2; 3' idT
B35: Aptamer 123 (ssRNA)
RNA: AGGCCGCUUCCGCGCGGAGGGGUUUCAUUAUCCCGUUUAGCGGCUU
modifications: all G 2'-F; A,C,U 2'-OMe; 5' C6NH2; 3' idT
B36: Aptamer 108 (ssRNA)
RNA: AGGCCGCCUCCGCGCGGAGGGGUUCAUUUCCCGUUUGGCGGCUU
modifications: all G 2'-F; A,C,U 2'-OMe; 5' C6NH2; 3' idT

The first data set concerns the target T1, VEGF-A121 (Homo sapiens, UniProt P15692 SEQ:1-121). Briefly: competition; TR-FRET. The note with it: tags: glycan-biotinylated for SPR/FRET/AlphaLISA; Acro BioSystems, Biolegend; chain copies: 2 (stated).
Target sequence in this assay (P15692 other isoform, or with tags, fused parts or gaps): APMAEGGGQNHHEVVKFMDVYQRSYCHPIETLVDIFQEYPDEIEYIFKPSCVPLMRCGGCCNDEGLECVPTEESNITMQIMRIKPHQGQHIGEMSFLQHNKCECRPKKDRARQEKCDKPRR
For the molecule B1, the binding result was “binds”.

On to B2, for which the binding result is recorded as “binds”.

As for B3, the binding result was “binds”.

B4: the binding result is given as “binds”.

Turning to B5, the binding result is on record as “binds”.

The next data set deals with T1, VEGF-A121. Nature of the data set: competition; TR-FRET. The note with it: tags: glycan-biotinylated for SPR/FRET/AlphaLISA; Acro BioSystems, Biolegend; chain copies: 2 (stated). The source holds these as a separate data set. On the procedure: Briefly, for competition TR-FRET, 2-fold dilutions of thermally equilibrated aptamers were made in TR-FRET Buffer (50 mM MOPS, pH 7.4, 125 mM NaCl, 5 mM KCl, 50 μM CHAPS, 0.1 mg/mL BSA, 1 mM CaCl₂, and 1 mM MgCl₂). 5 μL of aptamer or control solution was added to a 15 μL mix of glycan biotinylated […] (5 nM final), ALEXA FLUOR® 647-labeled Aptamer (30 nM final), and Streptavidin-Eu (Perkin Elmer; 2.5 nM final) in a black wall low volume 384 well plate (Greiner). For control, 5 μl of 1000-fold excess of unlabeled parent aptamer or 5 μl TR-FRET buffer alone was added to the mix of ALEXA FLUOR® 647-labeled aptamer, biotin-VEGF-A, and Streptavidin-Eu. The plate was covered with a plate seal and subsequently incubated in the dark for 1 hour at room temperature. The plate was read on a Biotek CYTATION™ 5 plate reader. Samples were excited at 330 nm and fluorescent values were collected at 665 nm. Data analysis was performed by subtracting the background value and plotting as percent inhibition, normalized to baseline in the absence of competitor. The values were fit by [Inhibitor] vs. response-Variable slope (four parameters) using GraphPad Prism Version 7.0 and then normalized to aptamer control to obtain an IC₅₀ relative to parent aptamer. Data is presented as log values of relative IC₅₀.
Activity of each of these variants were tested using a time resolved competition TR-FRET assay, as described in Example 7, in which a labeled parent was competed with increasing concentrations of unlabeled variants for binding to VEGF-A₁₂₁.
Consider B6, for which the binding signal was > 100 fold worse IC50 vs Aptamer 26.

Turning to B7, the binding result is listed as “binds”.

On to B8, for which the binding signal was > 100 fold worse IC50 vs Aptamer 26.

Turning to B9, the binding signal was > 100 fold worse IC50 vs Aptamer 26.

For the molecule B10, the binding result is given as “binds”.

On to B11, for which the binding signal was > 100 fold worse IC50 vs Aptamer 26.

As for B12, the binding signal was > 100 fold worse IC50 vs Aptamer 26.

B13: the binding signal is > 100 fold worse IC50 vs Aptamer 26.

Turning to B14, the binding signal was > 100 fold worse IC50 vs Aptamer 26.

As for B15, the binding result is “binds”.

Consider B16, for which the binding signal is > 100 fold worse IC50 vs Aptamer 26.

For B17, the binding signal is > 100 fold worse IC50 vs Aptamer 26.

In the case of B18, the binding signal was > 100 fold worse IC50 vs Aptamer 26.

Consider B19, for which the binding result is given as “binds”.

Turning to B20, the binding signal was > 100 fold worse IC50 vs Aptamer 26.

For B21, the binding signal was > 100 fold worse IC50 vs Aptamer 26.

In the case of B22, the binding signal is > 100 fold worse IC50 vs Aptamer 26.

On to B23, for which the binding signal was > 100 fold worse IC50 vs Aptamer 26.

Turning to B24, the binding result is listed as “binds”.

In the case of B25, the binding signal is > 100 fold worse IC50 vs Aptamer 26.

For B26, the binding signal was > 100 fold worse IC50 vs Aptamer 26.

In the case of B27, the binding signal is > 100 fold worse IC50 vs Aptamer 26.

As for B28, the binding signal is > 100 fold worse IC50 vs Aptamer 26.

As to B29, the binding signal was > 100 fold worse IC50 vs Aptamer 26.

As for B30, the binding signal was > 100 fold worse IC50 vs Aptamer 26.

In the case of B31, the binding result was “binds”.

With B32, the binding signal was ~3 fold better IC50 vs Aptamer 26.

Regarding B33, the binding signal is > 100 fold worse IC50 vs Aptamer 26.

Regarding B34, the binding signal is > 100 fold worse IC50 vs Aptamer 26.

Take B35: the binding result is reported as “binds”.

Consider B36, for which the binding signal was > 100 fold worse IC50 vs Aptamer 26.
